Data from IntAct's records for PubMed 19525971.

B1: Charged multivesicular body protein 3 (Homo sapiens), Q9Y3E7-1 (parent)
chain: MGLFGKTQEKPPKELVNEWSLKIRKEMRVVDRQIRDIQREEEKVKRSVKDAAKKGQKDVCIVLAKEMIRSRKAVSKLYASKAHMNSVLMGMKNQLAVLRVAGSLQKSTEVMKAMQSLVKIPEIQATMRELSKEMMKAGIIEEMLEDTFESMDDQEEMEEEAEMEIDRILFEITAGALGKAPSKVTDALPEPEPPGAMAASEDEEEEEEALEAMQSRLATLRS
partner: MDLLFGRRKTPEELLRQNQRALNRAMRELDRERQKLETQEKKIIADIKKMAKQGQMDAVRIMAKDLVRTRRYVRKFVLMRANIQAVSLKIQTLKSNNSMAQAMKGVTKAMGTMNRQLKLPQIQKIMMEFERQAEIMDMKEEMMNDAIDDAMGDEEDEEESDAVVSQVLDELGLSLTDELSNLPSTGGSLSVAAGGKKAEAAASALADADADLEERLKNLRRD

Variants of: B1
Settings: with chm2a_human CHMP2A

| effect of a mutation on the interaction | Variant |
| --- | --- |
| disrupting interaction | MGLFGKTQEKPPKELVNEWSLKIRKEMRVVDRQIRDIQREEEKVKRSVKDAAKKGQKDDCIDLAKEMIRSRKAVSKLYASKAHMNSVLMGMKNQLAVLRVAGSLQKSTEVMKAMQSLVKIPEIQATMRELSKEMMKAGIIEEMLEDTFESMDDQEEMEEEAEMEIDRILFEITAGALGKAPSKVTDALPEPEPPGAMAASEDEEEEEEALEAMQSRLATLRS [V59D;V62D] |
| disrupting interaction | MGLFGKTQEKPPKELVNEWSLKIRKEMRVVDRQIRDIQREEEKVKRSVKDAAKKGQKDDCIDLAKEMIRSRKAVSKLYASKAHMNSVLMGMKNQLAVLRVAGSLQKSTEVMKAMQSLVKIPEIQATMRELSKEMMKAGIIEEMLEDTFESMDDQEEMEEEAEMEIDRDDFEITAGALGKAPSKVTDALPEPEPPGAMAASEDEEEEEEALEAMQSRLATLRS [V59D;V62D;I168D;L169D] |
